Source: PMC11187873
Several values for one entry are separate records, joined by “and”; a condition that tells them apart may be missing. Equal values may be shown once.

What was measured:
[1] = target: PR‐RT model precursor (His6‐SUMO‐Δp6*‐PR(D25A)‐RT) (HIV‐1 isolate BH10); assay: SEC-MALS
[2] = target: PR(T26A)‐RT model precursor (HIV‐1 isolate BH10); assay: SEC-MALS

Substance | stoichiometry N [1] | stoichiometry N [2]
PR‐RT model precursor (His6‐SUMO‐Δp6*‐PR(D25A)‐RT) (domain or fragment) | 2 and 4 | –
PR(T26A)‐RT model precursor (domain or fragment) | – | 2 and 4
